In patent US20190225705A1 (published 2019):

What was measured:
[1] = biological target: T1, human coagulation factor XI (UniProt P03951 19-625); assay: Conversion Assay
[2] = biological target: T1, human coagulation factor XI; assay: FXIIa induced FXI conversion assay
[3] = biological target: T1, human coagulation factor XI; assay: ELISA
[4] = biological target: T1, human coagulation factor XI; assay: ELISA; remark: listed apart in the source
baboon FXI = baboon FXI (Papio anubis (baboon)); assay: ELISA
[5] = biological target: T1, human coagulation factor XI; assay: ELISA; remark: listed apart in the source
[6] = biological target: T1, human coagulation factor XI; assay: ELISA; remark: listed apart in the source
[7] = biological target: T1, human coagulation factor XI; assay: ELISA; remark: listed apart in the source
[8] = biological target: T1, human coagulation factor XI; assay: ELISA; remark: listed apart in the source

Binder	EC50 [1]	EC50 [4]	EC50 (baboon FXI)	also measured
TPP-3577 (antibody, V domains shown) VH: EVTLRESGPALVKPTQTLTLTCTFSGFSLSTSGMCVGWIRQPPGKALEWLAHIDWDDDKYYSTSLKSRLTISKDTSKNQVVLTMTNMDPVDTATYYCARIRSSVYAHYYGMDVWGQGTTVTVSS VL: DIVMTQSPDSLAVSLGERATISCKSSQSVLYSGDNYLNWYQQKPGQPPKLLIYAASTLESGIPDRFSGSGSGTDFTLTISSLQAEDVAVYYCQQYNGDPWTFGGGTKVEIKR			0.16 nM	
humanized and germlined anti-FXI antibody TPP-3290 (antibody, V domains shown) VH: EVTLRESGPALVKPTQTLTLTCTFSGFSLSTSGMGVSWIRQPPGKALEWLAHIDWDDDKYYSTSLKSRLTISKDTSKNQVVLTMTNMDPVDTATYYCARIRSSVYAHYYGMDYWGQGTTVTVSS VL: DIVMTQSPDSLAVSLGERATISCKASQSVLYSGDNYLNWYQQKPGQPPKLLIYAASTLESGIPDRFSGSGSGTDFTLTISSLQAEDVAVYYCQQYNGTPWTFGGGTKVEIKR	0.4 nM	0.17 nM		EC50 [5]: 0.168 nM
humanized and germlined anti-FXI antibody TPP-3577 (antibody, V domains shown) VH: EVTLRESGPALVKPTQTLTLTCTFSGFSLSTSGMCVGWIRQPPGKALEWLAHIDWDDDKYYSTSLKSRLTISKDTSKNQVVLTMTNMDPVDTATYYCARIRSSVYAHYYGMDVWGQGTTVTVSS VL: DIVMTQSPDSLAVSLGERATISCKSSQSVLYSGDNYLNWYQQKPGQPPKLLIYAASTLESGIPDRFSGSGSGTDFTLTISSLQAEDVAVYYCQQYNGDPWTFGGGTKVEIKR	0.4 nM	0.19 nM		EC50 [6]: 0.119 nM
TPP-3238 (antibody, V domains shown) VH: EVTLRESGPALVKPTQTLTLTCTFSGFSLSTSGMGVSWIRQPPGKALEWLAHIDWDDDKYYSTSLKSRLTISKDTSKNQVVLTMTNMDPVDTATYYCARIRSSVYYYYYGMDVWGQGTTVTVSS VL: not shown			0.28 nM	
humanized and germlined anti-FXI antibody TPP-3238 (antibody, V domains shown) VH: EVTLRESGPALVKPTQTLTLTCTFSGFSLSTSGMGVSWIRQPPGKALEWLAHIDWDDDKYYSTSLKSRLTISKDTSKNQVVLTMTNMDPVDTATYYCARIRSSVYYYYYGMDVWGQGTTVTVSS VL: not shown	0.6 nM	0.16 nM		EC50 [7]: 0.165 nM
TPP-3290 (antibody, V domains shown) VH: EVTLRESGPALVKPTQTLTLTCTFSGFSLSTSGMGVSWIRQPPGKALEWLAHIDWDDDKYYSTSLKSRLTISKDTSKNQVVLTMTNMDPVDTATYYCARIRSSVYAHYYGMDYWGQGTTVTVSS VL: DIVMTQSPDSLAVSLGERATISCKASQSVLYSGDNYLNWYQQKPGQPPKLLIYAASTLESGIPDRFSGSGSGTDFTLTISSLQAEDVAVYYCQQYNGTPWTFGGGTKVEIKR			0.14 nM	
murine anti-FXI antibody 1A6 (antibody, V domains shown) VH: QVTLKESGPGILKPSQTLSLTCSFSGFSLSTSGMGVGWIRQPSGKGLEWLAHIWWDDDKYYNPSLKSQLTISKDTSRNQVFLKITSVDAADTATYYCARKRSSVVAHYYAMDYWGQGTSVTVSS VL: DIVLTQSPASLAVSLGQRATISCKASQSVDYDGDSYLNWYQQKPGQPPKLLIYAASNLESGIPARFSGSGSGTDFTLNIHPVEEEDAATYYCQQSNGDPWTFGGGTKLEIK	0.5 nM	0.15 nM		EC50 [8]: 0.154 nM

Continued, in another order:

EC50 [1]	EC50 [4]	EC50 (baboon FXI)	Binder	also measured
0.6 nM	0.2 nM		humanized and germlined anti-FXI antibody TPP-3583 (antibody, V domains shown) VH: EVTLRESGPALVKPTQTLTLTCTFSGFSLSTSGMGVGWIRQPPGKALEWLAHIDWDDDKYYSPSLKSRLTISKDTSKNQVVLTMTNMDPVDTATYYCARIRSSVYAHYYGMDYWGQGTTVTVSS VL: DIVMTQSPDSLAVSLGERATISCKASQSVLYSGDNYLNWYQQKPGQPPKLLIYAASTLESGIPDRFSGSGSGTDFTLTISSLQAEDVAVYYCQQYNGDPWTFGGGTKVEIKR	IC50 [2]: 0.598 nM; EC50 [3]: 0.219 nM
		0.13 nM	TPP-3583 (antibody, V domains shown) VH: EVTLRESGPALVKPTQTLTLTCTFSGFSLSTSGMGVGWIRQPPGKALEWLAHIDWDDDKYYSPSLKSRLTISKDTSKNQVVLTMTNMDPVDTATYYCARIRSSVYAHYYGMDYWGQGTTVTVSS VL: DIVMTQSPDSLAVSLGERATISCKASQSVLYSGDNYLNWYQQKPGQPPKLLIYAASTLESGIPDRFSGSGSGTDFTLTISSLQAEDVAVYYCQQYNGDPWTFGGGTKVEIKR	
		0.16 nM	1A6 (antibody, V domains shown) VH: QVTLKESGPGILKPSQTLSLTCSFSGFSLSTSGMGVGWIRQPSGKGLEWLAHIWWDDDKYYNPSLKSQLTISKDTSRNQVFLKITSVDAADTATYYCARKRSSVVAHYYAMDYWGQGTSVTVSS VL: DIVLTQSPASLAVSLGQRATISCKASQSVDYDGDSYLNWYQQKPGQPPKLLIYAASNLESGIPARFSGSGSGTDFTLNIHPVEEEDAATYYCQQSNGDPWTFGGGTKLEIK	
